According to patent publication US20220324956A1:

Experiments:
[1] = biological target: recombinant human osteopontin protein (GST-OPN-his, purified in house) (human) (UniProt P10451); test: cell-based or functional assay
[2] = substrate: OPN antigen peptide YGLRSKS labeled with biotin (mouse and human (same sequence around the thrombin cleavage site)); test: direct ELISA, biotinylated peptide on avidin-coated plate, purified IgG serially diluted, 4-parameter fit

Chain of UniProt P10451 (P10451 17-314): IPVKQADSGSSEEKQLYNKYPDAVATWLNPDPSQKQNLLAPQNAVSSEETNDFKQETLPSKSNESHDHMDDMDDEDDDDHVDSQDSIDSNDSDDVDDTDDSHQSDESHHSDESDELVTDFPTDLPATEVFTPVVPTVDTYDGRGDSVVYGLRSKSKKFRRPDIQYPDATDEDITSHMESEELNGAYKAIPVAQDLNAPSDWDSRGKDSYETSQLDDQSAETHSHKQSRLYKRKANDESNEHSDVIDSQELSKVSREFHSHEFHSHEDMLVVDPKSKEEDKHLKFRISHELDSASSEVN

% inhibition of thrombin cleavage of human OPN-FL (OPN-R generated, OPN-R specific ELISA) [1]	EC50 [2]	Binder
60.1%	93.2 ng/mL	G7 rabbit monoclonal anti-osteopontin antibody (antibody, V domains shown) VH: QSVKESEGGLFKPTDTLTLTCTVSGFSLSSYGVSWVRQAPGNGLEWIGFIDKYGRTHYASWAKSRSTITRNTNENTVTLKMTSLTAADTATFLCARDDYRPAYGFDIWGPGTLVTVSS VL: QVLTQTASPVSAAVGSTVTINCQASQSVYNNNWLSWFQQKPGQPPKQLIYGASTLPSGVSSRFKGSGSGTQFTLTISDVQCDDAATYYCLGGYHWSTADCNVFGGGTEVVVKG
82%	2.6 ng/mL	A2 rabbit monoclonal anti-osteopontin antibody (antibody, V domains shown) VH: QSVKESEGGLFKPTDTLTLTCKASGFTVSSYDMGWLRQAPGNGLESIGAIGSDGSEYYVSWARGRTAITRNTNQNTVTLKMTSLTAADTATYFCARDSHYSYGYDYDIWGPGTLVTVSS VL: QVLTQTPSPVSAAVGGTVSISCQSSQSIYSNYLSWYQQKPGQPPKLLIYYASTLASGVPSRFKGSGSGTQFTLTISGVQCDDAATYYCQGTYYVTGWYDAFGGGTEVVVKG
95.4%	3.2 ng/mL	A6 rabbit monoclonal anti-osteopontin antibody (antibody, V domains shown) VH: QSVKESEGGLFKPTDTLTLTCKASGFTVSSYDMGWLRQAPGNGLESIGAIGSDGSEYYVSWARGRTTITRNTNQNTVTLKMTSLTAADTATYFCARDSHYSYGYDYDIWGPGTLVTVSS VL: QVLTQTPSPVSAAVGGTVSISCQSSQSIYSNYLSWYQQKPGQPPKLLIYYASTLASGVPSRFKGSGSGTQFTLTISGVQCDDAATYYCQGTYYVTGWYDAFGGGTEVVVKG
